Source: the supplement of paper PMC9233669
Fewer inactive variants are shown than the library holds.

Key:
biotinyl-Phe-oxazolone = experiment: self-aminoacylation, catalytic enhancement (BFO) (fold over background); higher = more active; k-Seq, kA / k0A0; sequences stand for … in GGGAAUGGAUCCACAUCUACGAAUUC…UUCACUGCAGACUUGACGAAGCUG
How it was run: (§1)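 Mutagenized RNA pools with a 21-nt variable region (0.43 μM) were reacted with each biotinyl-aminoacyl-oxazolone at 2–1250 μM for 90 minutes at room temperature, in 50 μL HEPES/NaCl/KCl/MgCl2/CaCl2 buffer containing 5% acetonitrile at pH 6.9–7.0. RNA captured on streptavidin was quantified by triplicate qPCR and by Illumina sequencing. The fraction reacted for each sequence was fit to a pseudo-first-order model with bootstrapping, and catalytic enhancement is the median kA divided by the uncatalyzed rate, taken as the low-activity peak of a bimodal Gaussian fit.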

biotinyl-Ile-oxazolone = experiment: self-aminoacylation, catalytic enhancement (BIO) (fold over background); higher = more active; k-Seq, kA / k0A0; sequences stand for … in GGGAAUGGAUCCACAUCUACGAAUUC…UUCACUGCAGACUUGACGAAGCUG
How it was run: as §1

biotinyl-Met-oxazolone = experiment: self-aminoacylation, catalytic enhancement (BMO) (fold over background); higher = more active; k-Seq, kA / k0A0; sequences stand for … in GGGAAUGGAUCCACAUCUACGAAUUC…UUCACUGCAGACUUGACGAAGCUG
How it was run: as §1

biotinyl-Val-oxazolone = experiment: self-aminoacylation, catalytic enhancement (BVO) (fold over background); higher = more active; k-Seq, kA / k0A0; sequences stand for … in GGGAAUGGAUCCACAUCUACGAAUUC…UUCACUGCAGACUUGACGAAGCUG
How it was run: as §1

biotinyl-Leu-oxazolone = experiment: self-aminoacylation, catalytic enhancement (BLO) (fold over background); higher = more active; k-Seq, kA / k0A0; sequences stand for … in GGGAAUGGAUCCACAUCUACGAAUUC…UUCACUGCAGACUUGACGAAGCUG
How it was run: as §1

biotinyl-Trp-oxazolone = experiment: self-aminoacylation, catalytic enhancement (BWO) (fold over background); higher = more active; k-Seq, kA / k0A0; sequences stand for … in GGGAAUGGAUCCACAUCUACGAAUUC…UUCACUGCAGACUUGACGAAGCUG
How it was run: as §1

| Sequence | self-aminoacylation (biotinyl-Phe-oxazolone) | self-aminoacylation (biotinyl-Ile-oxazolone) | self-aminoacylation (biotinyl-Met-oxazolone) | self-aminoacylation (biotinyl-Val-oxazolone) | self-aminoacylation (biotinyl-Leu-oxazolone) | self-aminoacylation (biotinyl-Trp-oxazolone) |
| --- | --- | --- | --- | --- | --- | --- |
| AAGUUUGCAAAUAGUCGCAAG [Fam3.1 aminoacylation ribozyme variant] | 1.03 | 0.763 | 0.734 | 0.752 | 0.665 | 0.789 |
| AUUCAUCUAGGUCAUAGGGUG [Fam2.2 aminoacylation ribozyme variant] | 10.1 | 2 | 2.63 | 1.87 | 3.39 | 2.83 |
| CUACUUUACACAAUCGGUCUG [Fam1A.1 aminoacylation ribozyme variant] | 0.601 | 0.87 | 0.872 | 0.805 | 0.742 | 0.543 |
| AUUCACCUAGGACAUCGAGUG [Fam2.2 aminoacylation ribozyme variant] | 2.04 | 1.02 | 1.52 | 1.12 | 1.81 | 1.89 |
| AUUCACGUAAGUCAUCGGGUG [Fam2.2 aminoacylation ribozyme variant] | 148 | 9.9 | 18.3 | 10.4 | 20.4 | 13.3 |
| CCACAUUUCAAGCACUCGGUC [Fam1B.1 aminoacylation ribozyme variant] | 0.933 | 1.25 | 1.15 | 1.37 | 1.16 | 0.97 |
| AAGUUUGCCAAUAGGCGCAAG [Fam3.1 aminoacylation ribozyme variant] | 1.05 | 1.04 | 0.885 | 1.02 | 1.15 | 0.799 |
| CUAGUUUAAACAAUCGGUCUG [Fam1A.1 aminoacylation ribozyme variant] | 0.814 | 0.924 | 0.84 | 0.765 | 0.774 | 0.631 |
| CCACACUGCCAGCAAUCGGUC [Fam1B.1 aminoacylation ribozyme variant] | 2.23 | 1.5 | 1.36 | 1.58 | 1.47 | 1.39 |
| UUCACCCUGGUCAUCGAGUGA [Fam2.1 aminoacylation ribozyme variant] | 13.2 | 5.88 | 11.3 | 6.29 | 10.6 | 12.7 |
| AUUACCCUGGUCAUCAAGUGC [Fam2.1 aminoacylation ribozyme variant] | 0.434 | 0.689 | 0.691 | 0.795 | 0.567 | 0.302 |
| GUUCACCUAGGUCAUCGGGUU [Fam2.2 aminoacylation ribozyme variant] | 51.7 | 7.61 | 13.5 | 6.82 | 17.9 | 9.2 |
| CUACCUCAAACAAUCGGACUG [Fam1A.1 aminoacylation ribozyme variant] | 1.27 | 0.872 | 0.915 | 0.833 | 0.614 | 1.05 |
| CCACACUUCGAGCAAUAGGUC [Fam1B.1 aminoacylation ribozyme variant] | 0.533 | 0.703 | 0.588 | 0.785 | 0.446 | 0.361 |
| AUUACCGGGGUCAUCGAGUGA [Fam2.1 aminoacylation ribozyme variant] | 33.8 | 3.48 | 5.81 | 3.67 | 6.14 | 6.27 |
| AAGUUUUCUAAUAGUCGCAAA [Fam3.1 aminoacylation ribozyme variant] | 3.41 | 1.93 | 1.54 | 1.54 | 1.41 | 2.46 |
| AUUAACCUGGUCAUCGAAUGA [Fam2.1 aminoacylation ribozyme variant] | 0.933 | 1.07 | 0.959 | 1.07 | 1.09 | 0.742 |
| AUUCACCUGGGUCACCGGGUG [Fam2.2 aminoacylation ribozyme variant] | 22.4 | 3.43 | 4.54 | 2.97 | 5.41 | 5.36 |
| CUACGUCAAACAAUCGGUCAG [Fam1A.1 aminoacylation ribozyme variant] | 0.761 | 0.855 | 0.917 | 0.797 | 1.12 | 0.909 |
| AUUACCCCGGUCAUCGGGUGA [Fam2.1 aminoacylation ribozyme variant] | 103 | 5.57 | 14.4 | 7.32 | 15.9 | 12.7 |
| AUUCACCAAGAUCAUCGGGUG [Fam2.2 aminoacylation ribozyme variant] | 33.2 | 3.1 | 4.4 | 3.21 | 5.42 | 4.68 |
| CUACUUCAUACAAUCGGUCAG [Fam1A.1 aminoacylation ribozyme variant] | 0.985 | 0.738 | 0.644 | 0.699 | 0.662 | 0.721 |
| CCACGCUUCAAGCAGUCGGUC [Fam1B.1 aminoacylation ribozyme variant] | 1 | 0.755 | 1.03 | 1.33 | 0.887 | 0.91 |
| CUAGUGCAAACAAUCGGUCUG [Fam1A.1 aminoacylation ribozyme variant] | 2.39 | 0.998 | 0.962 | 1 | 1.03 | 0.9 |
| AUGACCCUGGUCAUCGAGUAA [Fam2.1 aminoacylation ribozyme variant] | 31.5 | 3.71 | 10.1 | 3.51 | 10.2 | 8.31 |
| AUUAACCUAGGUCAUCGGGAG [Fam2.2 aminoacylation ribozyme variant] | 1.18 | 1.14 | 0.94 | 1.14 | 1.34 | 0.979 |

| Sequence | self-aminoacylation (biotinyl-Phe-oxazolone) | self-aminoacylation (biotinyl-Ile-oxazolone) | self-aminoacylation (biotinyl-Met-oxazolone) | self-aminoacylation (biotinyl-Val-oxazolone) | self-aminoacylation (biotinyl-Leu-oxazolone) | self-aminoacylation (biotinyl-Trp-oxazolone) |
| --- | --- | --- | --- | --- | --- | --- |
| CCACACUUCAAUCAAUCGGUC [Fam1B.1 aminoacylation ribozyme variant] | 42.7 | 1.1 | 1.05 | 1.17 | 1.51 | 21.8 |
| CUACUUCAAACAAUUGGUGUG [Fam1A.1 aminoacylation ribozyme variant] | 1.52 | 1.19 | 1.24 | 1.12 | 1.62 | 1.23 |
| AUUACCCUGGUCAACGAGUUA [Fam2.1 aminoacylation ribozyme variant] | 0.836 | 0.971 | 1.26 | 0.947 | 0.662 | 0.529 |
| AUUCACGUAGGUUAUCGGGUG [Fam2.2 aminoacylation ribozyme variant] | 38.9 | 3.34 | 5.38 | 5.09 | 4.91 | 4.68 |
| GUACUUCAAAGAAUCGGUCUG [Fam1A.1 aminoacylation ribozyme variant] | 3.28 | 1.26 | 1.07 | 1.24 | 1.46 | 4.9 |
| AAGUUUGGCAAUAGUCGCAAG [Fam3.1 aminoacylation ribozyme variant] | 1.92 | 1.79 | 1.49 | 1.42 | 1.4 | 1.49 |
| AUUACCCUGAGCAUCGAGUGA [Fam2.1 aminoacylation ribozyme variant] | 8.97 | 2.06 | 4.43 | 2.45 | 3.99 | 4.96 |
| CCACACUUCGAGCAAUCGAUC [Fam1B.1 aminoacylation ribozyme variant] | 0.547 | 0.471 | 0.361 | 0.481 | 0.487 | 0.387 |
| AUUCACCUAGGUCCUUGGGUG [Fam2.2 aminoacylation ribozyme variant] | 31.7 | 2.7 | 4.11 | 2.51 | 5.09 | 3.42 |
| AAGUUUGCUAAUCGCCGCAAG [Fam3.1 aminoacylation ribozyme variant] | 2.82 | 1.97 | 1.56 | 1.47 | 1.54 | 4.38 |
| AUUUACUUAGGUCAUCGGGUG [Fam2.2 aminoacylation ribozyme variant] | 32.2 | 2.91 | 4.85 | 3.18 | 5.78 | 4.45 |
| AUGCAGCUAGGUCAUCGGGUG [Fam2.2 aminoacylation ribozyme variant] | 24.9 | 2.95 | 3.73 | 3.61 | 4.37 | 3.92 |
| CUACUUCAAACAAUCCGUCGG [Fam1A.1 aminoacylation ribozyme variant] | 1.23 | 0.947 | 0.867 | 0.98 | 0.901 | 0.636 |
| CCACACUUCAAGCCAUAGGUC [Fam1B.1 aminoacylation ribozyme variant] | 0.805 | 0.812 | 0.622 | 0.688 | 0.632 | 0.633 |
| AUUACCCUGGUCAGCGUGUGA [Fam2.1 aminoacylation ribozyme variant] | 30.9 | 2.79 | 5.28 | 3.59 | 5.25 | 6.56 |
| CCACACUUGAAGCAAUAGGUC [Fam1B.1 aminoacylation ribozyme variant] | 0.578 | 0.563 | 0.509 | 0.513 | 0.471 | 0.438 |
| AUUGACCUAGGUCAUAGGGUG [Fam2.2 aminoacylation ribozyme variant] | 1.72 | 1.58 | 1.27 | 1.46 | 1.61 | 1.81 |
| AUUGACCCAGGUCAUCGGGUG [Fam2.2 aminoacylation ribozyme variant] | 34.9 | 3.6 | 4.74 | 3.31 | 6.54 | 5.64 |
| AUUCACCUAGAGCAUCGGGUG [Fam2.2 aminoacylation ribozyme variant] | 12.4 | 1.76 | 2.34 | 2.06 | 2.43 | 1.64 |
| CUACUUUUAACAAUCGGUCUG [Fam1A.1 aminoacylation ribozyme variant] | 0.864 | 0.888 | 0.921 | 0.802 | 0.713 | 0.516 |
| AUUCAGCUAGGUCAACGGGUG [Fam2.2 aminoacylation ribozyme variant] | 5.84 | 1.81 | 1.92 | 1.83 | 2.43 | 2.6 |
| AUUCACUUAGGUCAUCGUGUG [Fam2.2 aminoacylation ribozyme variant] | 0.821 | 0.779 | 0.802 | 0.777 | 0.869 | 0.747 |
| AUUCACCUAGAUCAUCCGGUG [Fam2.2 aminoacylation ribozyme variant] | 17.8 | 3.4 | 3.41 | 3.32 | 3.97 | 2.83 |
| UUACUUCAAACAAUCGGCCUG [Fam1A.1 aminoacylation ribozyme variant] | 95.3 | 2.69 | 2.35 | 2.3 | 4.03 | 43.2 |
| CCACACUUCUUGCAAUCGGUC [Fam1B.1 aminoacylation ribozyme variant] | 0.7 | 0.783 | 0.76 | 0.765 | 0.72 | 0.654 |
